The target in test [1] is monkey CD47 on monkey erythrocytes (monkey). As to the kind of experiment: flow cytometry on monkey erythrocytes.
Test [2] deals with T1, human CD47 on cells (human, UniProt Q08722 19-323).
T1 construct: whole, on cells; also called CHO-CD47 cells; MKN-45
As to the kind of experiment: flow cytometry on human erythrocytes; human erythrocytes, flow cytometry. The protocol: Erythrocytes were first isolated from the peripheral blood of volunteers and suspended in physiological saline to obtain an erythrocyte suspension with a concentration of 2%. Serially diluted antibody solutions were prepared with PBS to formulate 2× working solutions at final concentrations. 50 μL of the antibody working solution was added into 50 μL of erythrocyte suspension, and the mixture was incubated at 4° C. in the dark for 60 min. After washing twice with PBS, a corresponding fluorescence-labeled secondary antibody was added, and the mixture was incubated for 30 min at 4° C. in the dark, washed twice with PBS, and suspended with 400 μL of FACS buffer. The binding of the antibodies to the erythrocytes was detected by a flow cytometer. For erythrocyte agglutination detection, 50 μL of the antibody working solution was also added into 50 μL of erythrocyte suspension. The mixture was placed on a 96-well round bottom plate, let stand at room temperature for 2 h, observed and photographed.
(In general: A flow cytometer gives signals particle by particle.)

Test [3] addresses T1, human CD47 on cells. As to the kind of experiment: flow cytometry on MKN-45 cells. The protocol:
(§1) First, the inventors verified the expression of CD47 in the above 3 cell lines using flow cytometry. Serially diluted solutions of anti-human CD47 detection antibody (eBioscience, 17-0479-42) and APC isotype (eBioscience, 17-4714-41), anti-huIgG 633 (life technologies, A21091) were prepared with PBS to formulate 2× working solutions at final concentrations. The three tumor cells were collected, washed with PBS once, counted, and diluted to 4×10⁶/mL cell suspension. For each cell line, 50 μL of the antibody working solution was added into 50 μL of cell suspension, and the mixture was incubated at 4° C. in the dark for 30 min. After washing twice with PBS, a corresponding fluorescence-labeled secondary antibody (anti-huIgG 633) was added, and the mixture was incubated for 30 min at 4° C. in the dark, washed twice with PBS, and suspended with 400 μL of FACS buffer. The binding of the antibodies to the cells was detected by a flow cytometer.
(§2) The method is the same as above.

Test [4] addresses T1, human CD47 on cells. As to the kind of experiment: flow cytometry, inhibition of SIRPα-mFc binding to CHO-CD47 cells.
For test [5], the target named is T1, human CD47 on cells. Briefly: flow cytometry on A2780 cells. The protocol:
as §1, §2

In test [6] the target is T2, human CD47 protein (human, UniProt Q08722 19-139, limits assumed). Briefly: ELISA, plate coated with human CD47 protein. The protocol:
The next day, the plate was washed 3 times with 300 μL of PBST (Tween 20: 0.5‰), then blocked with 5% BSA/PBS at 100 μL/well for 2 h, and shaken at room temperature. The plate was then washed with 300 μL of PBST 3 times. The antibody samples prepared with PBS were serially diluted, added to a 96-well plate at 100 μL/well and shaken for 1 h at room temperature. The plate was then washed with 300 μL of PBST 3 times. A secondary goat anti-mouse IgG HRP or goat anti-human IgG HRP solution was prepared, added to a 96-well plate at 100 μL/well and shaken for 1 h at room temperature. The plate was then washed with 300 μL of PBST 4 times. TMB was added at 100 μL/well for 20 min of chromogenesis. The chromogenesis was terminated by adding 0.6 N H₂SO₄ at 100 μL/well and the OD_{450 nm} was detected.
For orientation: ELISA stands for enzyme-linked immunosorbent assay.

Test [7] addresses monkey CD47 on monkey erythrocytes (monkey, UniProt A0A2K5X4H8 19-305). As to the kind of experiment: flow cytometry on monkey erythrocytes.
Test [8] concerns the target T1, human CD47 on cells. Briefly: flow cytometry on SW620 cells. As for the experimental part: as §1, §2
The target in test [9] is T2, human CD47 protein. Briefly: SPR (Biacore T200), antibody captured on protein A chip, CD47 protein in solution. As for the experimental part: The affinity of antigen-antibody binding was measured by SPR (surface plasma resonance). […] During the dissociation phase, elution was continued for 360 s with HBS-EP buffer. The binding of CD47 to the antibody on the sensor chip was quantitatively determined using Biacore T200 (GE Healthcare).
On the technique in general: In SPR one partner is held on a chip, and binding of the other changes the refractive index at the surface.

Chain of monkey CD47 on monkey erythrocytes (monkey) (A0A2K5 entry or part of it limits assumed): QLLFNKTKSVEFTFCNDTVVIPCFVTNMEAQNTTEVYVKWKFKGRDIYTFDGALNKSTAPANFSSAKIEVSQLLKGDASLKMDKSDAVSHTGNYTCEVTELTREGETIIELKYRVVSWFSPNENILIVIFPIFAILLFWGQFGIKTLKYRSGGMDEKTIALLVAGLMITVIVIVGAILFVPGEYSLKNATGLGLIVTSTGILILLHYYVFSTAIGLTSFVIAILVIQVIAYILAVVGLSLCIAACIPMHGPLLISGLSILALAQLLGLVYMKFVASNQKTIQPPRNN
Chain of monkey CD47 on monkey erythrocytes (A0A2K5X4H8 entry or part of it limits assumed): as the sequence (A0A2K5 entry or part of it limits assumed) above

In general, EC50 refers to the concentration that produces a half-maximal response. Consider positive control antibody Hu5F9, for which, in test [1], the EC50 stood at 0.586 µg/mL and the plateau is 392.

B1: human-mouse chimeric antibody UM03-L4 (antibody, human IgG4 S228P, kappa, V domains shown)
VH: EVKLVESGGDLVQPGGSRKLSCAASGFTFSDYGMAWIRQAPGKGPEWIAFITNLASSIYYADTVTGRFTISRENAKNTLYLEMSSLRSEDTAMYYCARAGDYRSFPYWGQGTPVTVSA
VL: EILLTQSPAIIAASPGEKVTITCSASSSVNYVNWYQQKPGSSPKIWIYGISNLASGVPARFSGSGSGTSFSFTINSMEAEDVATYYCQQRSTFPPYTFGGGTKLEIKR
notes: expressed in HEK293 cells
The term IC50 denotes the point on the concentration scale where inhibition reaches its midpoint. As to B1, the EC50 worked out at 1.21 µg/mL with human CD47 on cells [2]; 0.381 µg/mL in the test with human CD47 on cells [3]; 0.142 µg/mL with human CD47 on cells [5]; 0.25 µg/mL with human CD47 protein [6]; 0.907 µg/mL in [7]; 0.216 µg/mL with human CD47 on cells [8]. Also, in the test with human CD47 on cells [4], the IC50 is 3.38 µg/mL.

B2: humanized antibody UM03-C4 (antibody, human IgG4 S228P, kappa, V domains shown)
VH: QVQLVESGGGVVQPGGSLRLSCAASGFTFSDYGMAWIRQAPGKGPEWIAFITNLASSIYYADTVTGRFTISRDNSKNTLYLQMNSLRAEDTAVYYCARAGDYRSFPYWGQGTLVTVSA
VL: EIVLTQSPATLSLSPGERATLSCSASSSVNYVNWYQQKPGQAPRILIYGISNLASGVPARFSGSGSGTDFTLTISSLEPEDFAVYYCQQRSTFPPYTFGQGTKLEIKR
notes: expressed in HEK293 cells
A word on the Kd: it is the concentration at which binding is half-saturated. By koff is commonly meant the first-order rate constant of dissociation. What is called kon is the second-order rate constant of association. On to B2, for which the 50% effective concentration (EC50) amounted to 0.93 µg/mL with human CD47 on cells [2]; 0.354 µg/mL with human CD47 on cells [3]; 0.119 µg/mL in the test with human CD47 on cells [5]; 0.169 µg/mL in the test with human CD47 protein [6]; 0.126 µg/mL with human CD47 on cells [8]. Also, the affinity with human CD47 protein [9], expressed as Kd, was 0.19 nM. Moreover, the koff with human CD47 protein [9] is 0.000193 s⁻¹. In the test with human CD47 protein [9], this molecule had a kon of 1.02e+06 M⁻¹ s⁻¹. The same molecule came in with an IC50 in the test with human CD47 on cells [4] of 2.4 µg/mL.

The values above are taken from US20230167192A1 (SUZHOU ZELGEN BIOPHARMACEUTICALS, published 2023).
